Substrate: O=[N+]([O-])c1ccc(O[C@@H]2O[C@@H](CO)[C@H](O)[C@H]2O)cc1
Test: purified protein
Conditions: general assay: sodium acetate buffer pH 5.5, 37 °C

B1: BLLJ_1852 (Bifidobacterium longum subsp. longum JCM 1217) (protein)
chain: DTVPTNNLIAAYDFTTKPSDGKTVANSAPNATLGAAEVQNSADSLWADDALTLSGGAKTGTGDWVKLPSNLLSGKDAATVQLEVKADSSMLNAFHFLWNIGNDSSDTEYFFATLNCGSSRNPLVGLKSGGTETLVQSSSCVAKADQWLSVTATIDGTAAKLYIDGTQVASGTVPAKLSSVKDQSLNTIGRSPWPDNLFKGAVSNFRVYDAALTADQVAAISTADASIHAGELTGSVLNGIIIPTTVDDPFISLPTANGVTWASSDSSVIATDGTVNQPAKGEAAKTVTLTAAVTVRGQTATKEFTVTVNPTTKTAAEQLKEVAAGYVIPSVVRSGDALPAAVNGTTVTVTSTKDVAVEDGKITIDGDEATTGTITVEFSKNGLAGIEPITKAFTVKVLPAAKSATIAAYDRNATGENEANNGDVAYSMHLALQNADGSYTPYNENYGIFFARSPKAQKLNENLDGNDYRSLKDPSLFRMADGTYGVISVRTNRGTATGDSTAKSSVLIATSEDLLTYSEQENSGSIVDLGETNGVNAPYAVYDTASKQYVVGWADDNGVAKYTTFDSLKGSTSKHGSVLYGSVAKSGVLAADGVQGIANFRSGATIAVDEATVKALNTRYGRSENTGTSNLTDITVKKGASIDEVTAQLPKNVDLTYSDGSTGSLPISSWNTEGIDLTKVGDYTVTGTVKQTEYQIPFAEDRADPSVYKWQWTHEADGKEVTETKFLMIASNDIQGDVTWQHGSPHMPFRMADTISGLADEPGNPNALIQSNGYNNKEVSLLKAGDKDSEGNAIMHSFWAPEIHEIDGRLTILFMAGYGNTWSNGKSVYMQLKQDADGHDLDPADPDNWTVPTPIYRNDASLLNGNKQLAATASGGVGMSLDMTYFQDADGRSYYAWQQLGATYIATMDPKDPAHVTSSPVRIVTPEYAWNAAIAEGPNVTLRDGKLYLMFSGSGVGKTYTTGLAVADASGTDLTDPASWTVLNYPIQKSGPFNGEMQLGTGHGMWSEDEDGNQIYVFHAYATKNLGSVNATGRDMFVRRVHWAADGMPVFDMSSSEELASKTVSVTVKVVDDTVTVDKTDLSKALASAKQLRESDYTAASWKAFAAALASAEKVYADENASQKDVDDATAALNKAQAALVKVDGSDSGDGSSDSTKPGDGSSIDAGATGDKTGNKLGLS
Protein B1 has a Km of 9.8 mM and a kcat of 19.2 s⁻¹.

Reference: paper doi:10.1101/379495v1
